Experimental data taken from patent US20160031998A1 (CSL, published 2016).
Where a chain is given by its changes, count along the chain named. Values belong to the binder of their own block, whether it stands above or below them.

Columns and labels:
[1] = biological target: T1, human G-CSFR expressed on cells (Homo sapiens, UniProt Q99062 25-836); assay: cell-based or functional assay
T1 sequence: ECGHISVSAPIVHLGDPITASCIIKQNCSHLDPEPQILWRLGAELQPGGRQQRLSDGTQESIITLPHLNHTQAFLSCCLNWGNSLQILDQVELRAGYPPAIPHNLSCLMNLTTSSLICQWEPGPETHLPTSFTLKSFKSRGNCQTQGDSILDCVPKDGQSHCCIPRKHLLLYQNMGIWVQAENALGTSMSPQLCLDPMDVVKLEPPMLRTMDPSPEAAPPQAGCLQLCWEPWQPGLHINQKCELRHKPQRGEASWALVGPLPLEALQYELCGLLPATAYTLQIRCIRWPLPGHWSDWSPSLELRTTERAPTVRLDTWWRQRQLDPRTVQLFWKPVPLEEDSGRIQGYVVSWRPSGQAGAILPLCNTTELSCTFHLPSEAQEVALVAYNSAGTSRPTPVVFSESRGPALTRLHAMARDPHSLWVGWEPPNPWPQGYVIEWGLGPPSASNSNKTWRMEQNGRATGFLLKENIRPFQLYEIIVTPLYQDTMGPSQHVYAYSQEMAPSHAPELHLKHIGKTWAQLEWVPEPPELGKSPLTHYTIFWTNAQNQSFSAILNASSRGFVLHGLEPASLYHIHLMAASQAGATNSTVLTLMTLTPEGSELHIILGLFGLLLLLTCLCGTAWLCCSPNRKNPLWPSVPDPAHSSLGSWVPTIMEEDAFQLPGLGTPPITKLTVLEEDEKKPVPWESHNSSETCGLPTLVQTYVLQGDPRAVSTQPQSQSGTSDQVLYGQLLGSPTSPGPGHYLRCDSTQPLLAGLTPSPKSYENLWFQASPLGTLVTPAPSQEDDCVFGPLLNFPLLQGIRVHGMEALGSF

[2] = biological target: T2, soluble hG-CSFR: amino acids 25-335 of Homo sapiens G-CSFR with mutations C78A, C163S and C228S and a … (Homo sapiens, UniProt Q99062 25-335); assay: SPR (Biacore 2000), receptor immobilised on CM5 chip, IgG4 in solution
T2 chain: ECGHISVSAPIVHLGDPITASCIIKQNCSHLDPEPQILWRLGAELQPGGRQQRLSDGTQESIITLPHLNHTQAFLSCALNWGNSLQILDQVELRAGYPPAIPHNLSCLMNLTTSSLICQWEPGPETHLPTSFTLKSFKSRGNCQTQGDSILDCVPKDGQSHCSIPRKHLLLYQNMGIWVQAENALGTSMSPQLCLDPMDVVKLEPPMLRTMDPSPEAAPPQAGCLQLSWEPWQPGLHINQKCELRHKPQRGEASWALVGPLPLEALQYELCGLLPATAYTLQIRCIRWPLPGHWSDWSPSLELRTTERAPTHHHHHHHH
Experimental: (§1) Duplicate biosensor analysis of the antibodies c1.2 and 5D11 in IgG4 format were performed using a Biacore 2000 with a doubling dilution of the antibodies (312 nM to 2.4 nM in 0.1 mg/ml BSA) at a flow rate of 30 ul/min. Binding (100 μl) was monitored to respective flow cells containing control immobilized blank, immobilized cyno-G-CSFR-Fc, immobilized hG-CSFR-Fc and immobilized hG-CSFR. Receptor proteins (20 ug per ml in 20 mM Sodium Acetate pH 4.5) were previously immobilized to a CM5 chip using a NHS/EDC coupling kit as per the manufacturer's instructions (Biacore GE, Sweden). Target immobilization values were set at 700, 700 and 500 resonance units for cyno-G-CSFR-Fc, hG-CSFR-Fc and hG-CSFR, respectively. Chip immobilization was quenched with 50 mM ethanolamine pH 8.0. Dissociation of surface binding was monitored for 1000 seconds prior to desorption of the remaining complex using 50 mM Phosphoric acid. Reference binding was then subtracted from the control channel and kinetics generated using biaevaluation software on the Biacore 2000.

[3] = biological target: T3, cynoG-CSFR-Fc: corresponding segment of cynomolgus monkey G-CSFR with an Fc sequence attached to its … (Macaca fascicularis, UniProt Q99062 25-335 (human entry)); assay: as above
T3 construct: the Fc is not specified; also called cynomolgus monkey G-CSFR-Fc
T3 chain: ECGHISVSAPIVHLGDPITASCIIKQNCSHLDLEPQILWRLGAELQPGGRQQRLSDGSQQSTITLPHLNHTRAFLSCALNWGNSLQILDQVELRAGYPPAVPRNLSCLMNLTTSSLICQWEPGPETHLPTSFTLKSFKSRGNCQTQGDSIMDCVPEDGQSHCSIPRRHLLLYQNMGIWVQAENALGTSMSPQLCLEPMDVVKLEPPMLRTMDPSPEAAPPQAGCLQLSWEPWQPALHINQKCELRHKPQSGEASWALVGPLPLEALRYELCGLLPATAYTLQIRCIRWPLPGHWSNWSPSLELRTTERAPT
Experimental: as §1

[4] = biological target: T4, hG-CSFR-Fc: polypeptide of SEQ ID NO: 1 in which the C-terminal polyhistidine tag is replaced with an Fc … (Homo sapiens, UniProt Q99062 25-335); assay: as above
T4 construct: the Fc is not specified; also called human G-CSFR-Fc; hG-CSFR-Fc fusion
T4 chain: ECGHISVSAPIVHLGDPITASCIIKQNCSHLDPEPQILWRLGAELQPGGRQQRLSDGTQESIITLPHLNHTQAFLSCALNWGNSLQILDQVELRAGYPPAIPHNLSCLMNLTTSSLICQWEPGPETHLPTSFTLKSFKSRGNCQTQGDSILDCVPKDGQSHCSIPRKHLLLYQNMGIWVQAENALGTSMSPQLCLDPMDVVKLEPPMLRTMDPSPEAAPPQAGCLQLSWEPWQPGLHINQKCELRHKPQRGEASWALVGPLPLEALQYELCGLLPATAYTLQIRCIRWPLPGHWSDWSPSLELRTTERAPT
Experimental: as §1

[5] = biological target: T2, soluble hG-CSFR: amino acids 25-335 of …; assay: SPR (Biacore), mAb captured by anti-human IgG, soluble hG-CSFR injected
Experimental: Soluble hG-CSFR was injected for 5 minutes and dissociation was monitored for 30 minutes. Responses from a reference flow cell (in which mAb was not captured, but otherwise treated identically), were subtracted. The responses from a blank injection were then subtracted from the resultant sensorgrams.
The final corrected responses were fitted using non-linear regression to a model describing 1:1 kinetics, including a term for mass transport limitation. The Rmax value was fitted locally, to account for slight deviations in the level of mAb captured. Association rate (ka), dissociation rate (kd) and equilibrium dissociation constant (KD) were determined.

[6] = biological target: T1, human G-CSFR expressed on cells; assay: cell-based or functional assay; remark: listed apart in the source
[7] = biological target: T2, soluble hG-CSFR: amino acids 25-335 of …; assay: SPR (Biacore 2000), receptor immobilised on CM5 chip, Fab in solution
Experimental: (§2) Duplicate biosensor analysis of the Fab were performed using a Biacore 2000 (GE, Sweden) with a doubling dilution of Fab antibodies (100 nM to 0.39 nM in 0.1 mg/ml BSA) at a flow rate of 30 μl/min. Binding (100 μl) was monitored to respective flow cells containing control immobilised blank, immobilized cyno G-CSFR-Fc, immobilized human G-CSFR-Fc and immobilized human G-CSFR. Receptor proteins (20 μg per ml in 20 mM Sodium Acetate pH 4.5) were previously immobilized to a CM5 chip using a NHS/EDC coupling kit as per the manufacturer's instructions (Biacore GE, Sweden). Target immobilization values were set at 700, 700 and 500 resonance units for cyno G-CSFR-Fc, hG-CSFR-Fc and hG-CSFR, respectively. Chip immobilisation was quenched with 50 mM ethanolamine pH 8.0. Dissociation of surface binding was monitored for 1000 seconds prior to desorption of the remaining complex using 50 mM Phosphoric acid. Reference binding was then subtracted from the control channel and kinetics generated using biaevaluation software on the Biacore 2000.

[8] = biological target: T3, cynoG-CSFR-Fc: corresponding segment of …; assay: as above
Experimental: as §2

[9] = biological target: T4, hG-CSFR-Fc: polypeptide of SEQ ID NO: 1 …; assay: as above
Experimental: as §2

[10] = biological target: T5, wild type hG-CSFR (soluble, corresponding extracellular domains of the wild type receptor) (Homo sapiens, UniProt Q99062 25-335); assay: SPR (Biacore), mAb captured by anti-Fc, soluble wild type receptor injected
T5 construct: also called wt hG-CSFR
T5 sequence: T4 chain with A78C, S163C, S228C

[11] = biological target: T1, human G-CSFR expressed on cells; assay: binding to BaF3 cells expressing hG-CSFR; method not described; hG-CSFR on the cell surface of BaF3 cells

B1: C1.2 IgG4 antibody (antibody, V domains shown)
VH: EVQLLESGGGLVQPGGSLRLSCAASGFTFSLYWMGWVRQAPGKGLEWVSSISSSGGVTPYADSVKGRFTISRDNSKNTLYLQMNSLRAEDTAVYYCAMLGELGWFDPWGQGTLVTVSS
VL: DIQMTQSPSALSASVGDRVTITCRASQGISSYLNWYQQKPGKAPKLLIYYASNLQNGIPSRFSGSGSGTDFTLTISSLQPEDFATYHCQQSYSTPLTFGGGTNVEIR
notes: human IgG4 format; also called C1.2 Ab
IC50, inhibition of CFU-G formation by CD34+ bone marrow cells in the presence of G-CSF [1]: 0.016 nM
IC50, inhibition of G-CSF-mediated proliferation of BaF3 cells expressing hG-CSFR [1]: 0.5 nM
Kd [2]: 0.027 nM
Kd [3]: 0.054 nM
Kd [4]: 0.077 nM

B2: C1.2G-969 (antibody, human IgG4, V domains shown)
VH: B1 VH with M98K, W104Q, F105Y, D106Q, P107F
VL: DIQMTQSPSSLSASVGDRVTITCRASQGISSYLNWYQQKPGKAPKLLIYYASNLQNGVPSRFSGSGSGTDFTLTISSLQPEDFATYYCQQSFQYAQHFGGGTKVEIK
notes: also called antibody 969
Kd [5]: 0.181 nM
IC50 (nM), inhibition of G-CSF-mediated proliferation of BaF3 cells [6]: 0.41 nM

The remaining lines, values ahead:

Kd [7]: 0.37 nM
Kd [8]: 0.39 nM
Kd [9]: 0.33 nM
B3: C1.2 Fab (Fab, V domains shown)
VH: B1 VH
VL: B1 VL
notes: human Fab (papain digest of the antibody or E. coli expression); also called Fab C1.2

Kd [5]: 0.182 nM
IC50 (nM), inhibition of G-CSF-mediated proliferation of BaF3 cells [6]: 0.34 nM
B4: C1.2G-1000 (antibody, human IgG4, V domains shown)
VH: B1 VH with M98K, W104Q, F105M, D106M, P107Y
VL: B2 VL with F92W, Q93M, Q96H, H97M
notes: also called antibody 1000

IC50 (nM), inhibition of G-CSF-mediated proliferation of BaF3 cells [6]: 0.32 nM
IC50, inhibition of G-CSF-mediated proliferation of BaF3 cells expressing hG-CSFR (3H-thymidine incorporation) [1]: 0.8 µg/mL
Kd [10]: 1.4 nM
Kd [11]: 0.257 nM
B5: C1.2G (germlined C1.2), human IgG4 (antibody, V domains shown)
VH: B1 VH with M98K
VL: B1 VL with A10S, I58V, H87Y, N103K, R107K
notes: Human IgG4/kappa; also called C1.2 germline mAb; C1.2G (human IgG4)
